Measured values: patent US20240238459

T1: substrate sequence FVQWFSKFLGK (SEQ ID NO:3)
T1 sequence: FVQWFSKFLGK

B1: granzyme K (enzyme, UniProt P49863 27-264, looked up, species assumed)
Granzyme K: IIGGKEVSPHSRPFMASIQYGGHHVCGGVLIDPQWVLTAAHCQYRFTKGQSPTVVLGAHSLSKNEASKQTLEIKKFIPFSRVTSDPQSNDIMLVKLQTAAKLNKHVKMLHIRSKTSLRSGTKCKVTGWGATDPDSLRPSDTLREVTVTVLSRKLCNSQSYYNGDPFITKDMVCAGDAKGQKDSCKGDSGGPLICKGVFHAIVSGGHECGVATKPGIYTLLTKKYQTWIKSNLVPPHTN
B2: C1S (enzyme, UniProt P09871 16-688, looked up, species assumed)
Complement C1s subcomponent: EPTMYGEILSPNYPQAYPSEVEKSWDIEVPEGYGIHLYFTHLDIELSENCAYDSVQIISGDTEEGRLCGQRSSNNPHSPIVEEFQVPYNKLQVIFKSDFSNEERFTGFAAYYVATDINECTDFVDVPCSHFCNNFIGGYFCSCPPEYFLHDDMKNCGVNCSGDVFTALIGEIASPNYPKPYPENSRCEYQIRLEKGFQVVVTLRREDFDVEAADSAGNCLDSLVFVAGDRQFGPYCGHGFPGPLNIETKSNALDIIFQTDLTGQKKGWKLRYHGDPMPCPKEDTPNSVWEPAKAKYVFRDVVQITCLDGFEVVEGRVGATSFYSTCQSNGKWSNSKLKCQPVDCGIPESIENGKVEDPESTLFGSVIRYTCEEPYYYMENGGGGEYHCAGNGSWVNEVLGPELPKCVPVCGVPREPFEEKQRIIGGSDADIKNFPWQVFFDNPWAGGALINEYWVLTAAHVVEGNREPTMYVGSTSVQTSRLAKSKMLTPEHVFIHPGWKLLEVPEGRTNFDNDIALVRLKDPVKMGPTVSPICLPGTSSDYNLMDGDLGLISGWGRTEKRDRAVRLKAARLPVAPLRKCKEVKVEKPTADAEAYVFTPNMICAGGEKGMDSCKGDSGGAFAVQDPNDKTKFYAAGLVSWGPQCGTYGLYTRVKNYVDWIMKTMQENSTPRED

System: T1, substrate sequence FVQWFSKFLGK (SEQ ID NO:3)

Protein | protease specificity (cleavage activity; enzyme 5 nM, substrate 60 µM)
B1 | the substrate sequence is highly specific for granzyme B compared to the other proteases tested
B2 | the substrate sequence is highly specific for granzyme B compared to the other proteases tested
